Common to all, as to settings: acCoA co-substrate, 50 mM Tris-HCl pH 8.5, 150 mM NaCl, 25 °C
Substrate in data set [1]: NCCCNCCCCNCCCN
As to the kind of experiment: DTNB acetyltransferase assay. Format: biochemical, Arabidopsis thaliana.

Substrate in data set [2]: NCCCCN
The experiment in a line: DTNB acetyltransferase assay. Format: biochemical, Arabidopsis thaliana.

Substrate in data set [3]: NCCSC[C@H](N)C(=O)O
As to the kind of experiment: DTNB acetyltransferase assay. Format: biochemical, Arabidopsis thaliana.

Substrate in data set [4]: NCCCC[C@H](N)C(=O)O
As to the kind of experiment: purified protein.

Substrate in data set [5]: NCCC[C@H](N)C(=O)O
The experiment in a line: purified protein.

Substrate in data set [6]: NCCCN
The experiment in a line: purified protein.

B1: NATA1Δ (Arabidopsis thaliana) (protein)
chain: TGHRMFSRIRLATPTDVPFIHKLIHQMAVFERLTHLFVATESGLASTLFNSRPFQAVTVFLLEISPSPFPTTHDASSPDFTPFLETHKVDLPIEDPDREKFLPDKLNDVVVAGFVLFFPNYPSFLAKQGFYIEDIFMREPYRRKGFGKLLLTAVAKQAVKLGVGRVEWIVIDWNVNAINFYEQMGAQVFKEWRLCRLTGDALQAIDKLNI
For B1, the Km in data set [1] is 2260 ± 500 µM; in data set [2] it was 1900 ± 420 µM; in data set [3] it was 540 ± 130 µM; in data set [4] it was 12700 ± 3520 µM; in data set [5] it was 4040 ± 820 µM; in data set [6], 440 ± 120 µM. Besides, the kcat in data set [1] amounted to 1.56 ± 0.10 s⁻¹; in data set [2], 1.11 ± 0.12 s⁻¹; in data set [3], 2.04 ± 0.20 s⁻¹; in data set [4], 0.58 ± 0.09 s⁻¹; in data set [5], 0.64 ± 0.05 s⁻¹; in data set [6], 1.59 ± 0.08 s⁻¹.

B2: NATA2Δ (Arabidopsis thaliana) (protein)
chain: MFSRIRLATPSDVPFIHKLIHQMAVFERLTHLFSATESGLASTLFTSRPFQSFTVFLLEVSRSPFPATITSSPSPDFTPFFKTHNLDLPIDDPESYNFSPDMLNDVVVAGFVLFFPNYSSFLSKPGFYIEDIFVREPYRRKGFGSMLLTAVAKQAVKMGYGRVEWVVLDWNVNAIKFYEQMGAQILQEWRVCRLTGDALEAFDQVNI
Regarding B2, the Km is 1620 ± 350 µM in data set [1]; 2290 ± 480 µM in data set [2]; 330 ± 80 µM in data set [3]; 9480 ± 2530 µM in data set [4]; 370 ± 70 µM in data set [6]. Further, the kcat in data set [1] worked out at 1.49 ± 0.08 s⁻¹; in data set [2], 1.04 ± 0.07 s⁻¹; in data set [3], 2.20 ± 0.10 s⁻¹; in data set [4], 0.45 ± 0.10 s⁻¹; in data set [6] it was 1.46 ± 0.07 s⁻¹.

The values are drawn from publication doi:10.1101/2024.03.04.583282v1.
